From US20180291083A1

Biological target: HLA-B*07:02 (human)
Assay: UV ligand exchange ELISA; exchange yield grade
Conditions: remark: other sources report otherwise

peptide exchange yield: 20 to 50%
Binder: YPGWHSTTI […]
